Values of other authors in publication PMC7094366.

Target: SARS-CoV 3C-like proteinase (Severe acute respiratory syndrome coronavirus) (UniProt P0C6X7)

SARS-CoV 3C-like proteinase (from UniProt P0C6X7)
Kd: 100 µM
